In paper PMC10063446 (Nature Immunology, 2023):

How the values were obtained:
[1] = target: recombinant wild-type SARS-CoV-2 S trimer (ELISA antigen) (SARS-CoV-2 wild-type, UniProt P0DTC2)
[2] = target: recombinant RBD protein of wild-type SARS-CoV-2 (ELISA antigen) (SARS-CoV-2 wild-type, UniProt P0DTC2)

| Binder | binding result [1] | binding result [2] |
| --- | --- | --- |
| P195-2B8 (antibody, V domains shown) VH: EVQLVESGGGLIHPGGSLRLSCAASGFTVSSNYMTWVRQAPGKGLEWVSVIYSGGSTFYADSVKGRFTISRDNSKNTLYLQMNSLRAQDTAVYYCARDLSVYGMDVWGQGTTVTVSS VL: DIQLTQSPSFLSASVGDRVTITCRASQGISSYLAWYQQKPGKAPKLLIYAASTLQSGVPSRFSGSGSGTEFTLTISSLQPEDFATYYCQQLNSDSFTFGPGTKVDIK | binds | binds |
| P2-1G7 (antibody, V domains shown) VH: EVQLVESGGGLIQPGGSLRLSCAASGFIVSSNYMTWVRQAPGKGLEWVSVLFSGGSTFYADSVKGRFTISRDNSKNTLYLQMNSLRAEDTAVYYCARENGGYYFDYWGQGTLVTVSS VL: DIQLTQSPSFLSASVGDRVTITCRASQGISTYLAWYQQKPGKAPKLLIYAASTLQSGVPSRFSGSGSGTEFTLTISSLQPEDFATYYCQQLNNYPPDFGGGTKVEIK | binds | binds |
| P186-2B1 (antibody, V domains shown) VH: EVQLVESGGGLVQPGGSLRLSCAASGFTVSSNYMSWVRQAPGKGLEWVSVIYSGGSTYYTDSVKGRFTISRHNSKNTLYLQMNSLRVEDTAVYYCARVGTNYINNSGWYFDYWGQGTLVTVSS VL: not shown | binds | binds |
| P10S-1D8 (antibody, V domains shown) VH: QMQLVQSGPEVKKPGTSVKVPCKASGFTFSSSAVQWVRQARGQRLEWIGWIVVGSGNTNYAQKFQERVTITRDMSTSTAYMELSSLRSEDTAVYYCAAPGCNSTSCYDGFDIWGQGTMVTVSS VL: not shown | binds | binds |
| P2-2H8 (antibody, V domains shown) VH: QVQLVQSGAEVKKPGSSVKVSCKASGGTFSSYAISWVRQAPGQGLEWMGRIISMLGIANYAQKFQGRVTITADKSTSTAYMELSSLRSEDTAIYFCARDPDIHYDSSGYSHYYGMDVWGQGTTVTVSS VL: DIVMTQSPLSLPVTPGEPASISCRSSQSLLHGNGYNYLDWYLQRPGQSPQLLIYLGSNRASGVPGRFSGSGSGTDFTLKISRVEAEDVGVYYCMQALQTLITFGQGTQLEIK | binds | binds |
| P104-1G2 (antibody, V domains shown) VH: QLQLQESGPGLVKPSETLSLTCTVSGGSISSSSYYWGWIRQPPGKGLEWIGSIYYGGSTYYNPSLKSRVTISVDTSKNQFSLKLSSVTAADTAVYYCARSLGIFDYWGQGTLVTVSS VL: DIQMTQSPSSLSASVGDRVTITCRASQGISNSLAWYQQKPGKAPKLLLYGASTLESGVPSRFSGSGSATDYTLTISSLQPEDFATYYCQQYYSNPPYTFGQGTKLEIK | binds | binds |
| P5-1A7 (antibody, V domains shown) VH: EVQLVESGGDLIQPGGSLRLSCAASGFTVSSNYMSWVRQAPGKGLEWVAVIYSGGSTYYADSVKGRFTISRDNSKNTLYLQMNSLRAEDTAVYYCARDYGDFYFDYWGQGTLVTVSS VL: not shown | binds | binds |
| P5-2H11 (antibody, V domains shown) VH: EVQLVESGGGLIQPGGSLRLSCAASEFTVSSNYMSWVRQAPGKGLEWVSIIYSGGSTFYADSVKGRFTISRDNSQNTLYLQMNSLRAEDTAVYYCARTLPLYGDYFDYWGQGTLVTVSS VL: QSVLTQPPSVSGAPGQRVTISCTGSSSNIGAGYDVHWYQQLPGTAPKLLIYGNNNRPSGVPDRFSGSKSGTSASLAITGLQPEDEADYYCQSYDSSLSVVFGGGAKLTVL | binds | binds |
| P186-1H2 (antibody, V domains shown) VH: EVQLVESGGGLVQPGRSLRLSCAASGFTFGDYAMHWVRQSPGKGLEWVSGITWNSAGIGYADSVKGRFTISRDNAKNSLYLQMNSLRVEDTALYYCAKAPKWGGVDYLFDYWGQGTLVTVSS VL: not shown | binds | binds |
| P195-2A3 (antibody, V domains shown) VH: QVTLRESGPALVKPTQTLTLTCTFSGFSLSTSGMCVSWIRQPPGKALEWLALIDWDDDKYYSTSLKTRLTISKDTSKNQVVLRMTNMDPVDTATYYCARSWVGGGLDVWGQGTTVTVSS VL: not shown | binds | binds |
| P5S-2G9 (antibody, V domains shown) VH: QVTLRESGPALVKPTQTLTLTCTFSGFSLRTTGMCVSWIRQPPGKALEWLALIDWDGDKYYATSLETRLTISKDTSENQVVLTMTNMDPVDTATYYCVRTLRLRWLDFWGQGTLVTVSS VL: DIQMTQSPSSLSASVGDRVTITCRASQSIGTSLNWYQQKPVKAPNLLIYGASSLQSGVPSRFSGSGSGTDFTLTISSLQPEDFATYYCQQGYTTPLTFGGGTKVEIK | binds | binds |
| P195-1B7 (antibody, V domains shown) VH: QITLKESGPTLVKPTQTLTLTCTFSGFSLSTSGVGVGWIRQPPGKALEWLALIYWDDDKRYSPSLKSRLTITKDTSKNQVVLTMTNMDPVDTATYYCAHSGYSGYDWRGFDYWGQGTLVTVSS VL: SYELTQPPSVSVSPGQTARITCSADALPKQYAYWYQQKPGQAPVLVIYKDSERPSGIPERFSGSSSGTTVTLTISGVQAEDEADYYCQSADSSGTYPVVFGGGTKLTVL | binds | binds |
| P5S-1D8 (antibody, V domains shown) VH: EVQLVESGGGLVQPGRSLRLSCAASGFTFDDYAMYWVRQAPGKGLEWVSGVSWNSGTIGYADSVKGRFIISRDNAKNSLYLQMRSLRTEDTALYYCAKDSATRYYSGSDYTSYGMDVWGQGTTVTVSS VL: QSALTQPASVSGSPGQSITVSCTGTSSDIGDYNYVSWYQQHPGKAPKLMIYDVSNRPSGASNRFSGSKSGNTASLTISGLQAEDEADYYCSSYTSSSTVVFGGGTKVTVL | binds | binds |
| P2-1G1 (antibody, V domains shown) VH: EVQLVESGGGLVQPGRSLRLSCAASGFTFDDYAMHWVRQAPGKGLEWVSGMSWNSGTIGYADSVKGRFTISRDNAKNSLYLQMNSLRPEDTALYYCAKDIGGAEMATRNYGMDVWGQGTTVTVSS VL: QSALTQPASVSGSPGQSITISCTGASSDVGGYNYVSWYQQHPGKAPKLMIYDVSERPSGVSNRFSGSKSGNTASLTISGLQAEDEADYYCSSYTSSSTLVFGGGTKLTVL | binds | binds |
| P5S-3D10 (antibody, V domains shown) VH: EVQLVESGGDLVQPGRSLRLSCAASGFTFSLFAMSWVRQAPGKGLEWVSTISGRGDSSYYADSVKGRFTISRDNSKNTLYLQITGLRAEDTAVYYCAKGVDGDYGNWFDPWGQGALVTVSS VL: SYVLTQPPSVSVAPGKTARITCGGNNIGSKSVHWYQQKPGQAPVLVIYYDSDRPSGIPERISGSNSGNTATLTISRVEAGDEADYYCQVWHSSSVIFGGGTKLTVL | binds | binds |
| P2-1D5 (antibody, V domains shown) VH: QVQLVESGGGVVQPGRSLRLSCAASGFTFSSSVMHWVRQAPGKGLEWVALIWYDGSNKYYADSVKGRFTISRDNSKNTLYLQMNSLRAEDTAVYYCARDREITMTTFDYWGQGTLVTVSS VL: not shown | binds | binds |
| P2S-2A6 (antibody, V domains shown) VH: EVQLVESGGGLVQPGRSLRLSCAASGMTFDDYDMHWVRQVPGKGLEWVSGISWNGGIIGYADSVKGRFTISRDNAKTSLYLQMNSLRAEDTALYYCAKVAGRGDYDYYYGMDVWGQGTTVTVSS VL: QSVLTQPPSVSGAPGQRVTISCTGSSSNIGAGYDVHWYQQLPGTAPKLLIYGNNNRPSGVPDRFSGSKSGTSASLAITGLQAEDEADYYCQSYDSSLSGSVFGGGTKLTVL | binds | binds |
| P2S-1H6 (antibody, V domains shown) VH: EVQLVESGGGLVQPGRSLRLSCAASGFTFDDYDMHWVRQAPGKGLEWVSGISWNGGIIGYADSVKGRFTISRDNAKTSLYLQMNSLKPEDTALYYCAKVAGRGDYDYYYGMDVWGQGTTVTVSS VL: QSVLTQPPSVSGAPGQRVTISCTGSSSNIGAGYDVHWYQQLPGTAPKLLIYGNNNRPSGVPDRFSGSKSGTSASLAITGLQAEDEADYYCQSYDSSLSGSVFGGGTKLTVL | binds | binds |
| P195-1E11 (antibody, V domains shown) VH: EVQLVESGGGLVQPGRSLRLSCAASGFTFDDYAMHWVRQAPGKGLEWVSGISWNSGSIVYADSVKGRFTISRDNAKNSLYLQMNSLRAEDTALYYCAKDSEDCSSTNCYFDYWGQGTLVTVSS VL: not shown | binds | binds |
| P2-2D8 (antibody, V domains shown) VH: EVQLVESGGGLVKPGGSLRLSCAASGFTFSNAWMNWVRQAPGKGLEWVGRIKSKADGGTTDYAAPVKGRFTISRDDSKNTLYLQMNSLKTDDTAVYYCTTTRAVAATLNFLFSYYDGMDVWGQGTTVTVSS VL: NFMLTQPHSVSESPGKTVTISCTGSSGSIASNYVQWYQQRPGSAPTTVIYEDNQRPSGVPDRFSGSIDSSSNSASLTISGLKTEDEADYYCQSYDSNNHLVLFGGGTKLTVL | binds | binds |
| P10S-2F9 (antibody, V domains shown) VH: QVTLRESGPALVKPTQTLPLTCTFSGFSLSTSGMCVSWIRQPPGKALEWLALIDWDDNKYYSTSLKARLTISKDTSKNQVVLTMTNMDPVDTATYYCARIPALLRYLDKFYYFGMDVWGQGTTVTVSS VL: QSVLTQPPSVSAAPGQKVTISCSGSSPNIGNNYVSWYQQLPGTAPKLLIYDNNKRPSGIPDRFSGSKSGTSATLGITGLQTGDEAGYYCGTWDSSLSAVVFGGGTKLTVL | binds | binds |
| P195-2A1 (antibody, V domains shown) VH: EVQLVESGGGLVQPGGSLRLSCAASGFTVSSNYMSWVRQAPGKGLEWVSVIYSGGSTYYADSVKGRFTISRDNSKNTLYLQMNSLRAEDTAVYYCARGEGGDLPFDYWGQGTLVTVSS VL: QSALTQPASVSGSPGQSITISCTGTSSDVGGYYYVSWFQQHPGEAPKLMIFDVSKRPSGVSNRFSGSKSGNTASLTISGLQAEDEADYYCSSYTSSSTSHVLFGGGTKLTVL | binds | binds |
